Measured values reported in patent US20240239881A1.
Like-named read-outs stand apart in the source and are kept apart here.

Legend:
[1] = target: Cynomolgus monkey Ang2 C-terminal domain (Lys274-Phe495) (cynomolgus monkey); assay: ForteBio BLI, antibody on AHQ sensor, 100 nM antigen, 1:1 model
[2] = target: recombinant biotinylated hAngiopoietin-2 protein (R&D, Cat. No.: BT623B/CF) (human) (UniProt O15123); assay: ELISA: biotin Ang2 (R&D BT623B/CF) captured on coated streptavidin (SA), antibody titrated, anti-human IgG-HRP, OD450-OD620, GraphPad fit (fit of a flat control curve)
[3] = target: recombinant biotinylated hAngiopoietin-2 protein (R&D, Cat. No.: BT623B/CF) (human) (UniProt O15123); assay: blocking ELISA: antibody titrated against biotinylated hAng2 (300 ng/ml final); blocked binding to coated hTie2 protein; Avidin-HRP detection (fit of a flat control curve)
[4] = target: recombinant biotinylated hAngiopoietin-2 protein (R&D, Cat. No.: BT623B/CF) (human) (UniProt O15123); assay: as above; remark: listed apart in the source
[5] = target: Human ang2 protein (Sino Biological, Cat No.: 10691-H08H) (human) (UniProt O15123); assay: ELISA: human ang2 protein (Sino Biological 10691-H08H) coated at 0.25 ug/ml, antibody titrated, HRP-conjugated secondary antibody, OD450-OD620, GraphPad fit (fit of a flat control curve)
Human ang2 protein (Sino Biological, Cat No.: 10691-H08H) (human), sequence (O15123 19-496 limits assumed): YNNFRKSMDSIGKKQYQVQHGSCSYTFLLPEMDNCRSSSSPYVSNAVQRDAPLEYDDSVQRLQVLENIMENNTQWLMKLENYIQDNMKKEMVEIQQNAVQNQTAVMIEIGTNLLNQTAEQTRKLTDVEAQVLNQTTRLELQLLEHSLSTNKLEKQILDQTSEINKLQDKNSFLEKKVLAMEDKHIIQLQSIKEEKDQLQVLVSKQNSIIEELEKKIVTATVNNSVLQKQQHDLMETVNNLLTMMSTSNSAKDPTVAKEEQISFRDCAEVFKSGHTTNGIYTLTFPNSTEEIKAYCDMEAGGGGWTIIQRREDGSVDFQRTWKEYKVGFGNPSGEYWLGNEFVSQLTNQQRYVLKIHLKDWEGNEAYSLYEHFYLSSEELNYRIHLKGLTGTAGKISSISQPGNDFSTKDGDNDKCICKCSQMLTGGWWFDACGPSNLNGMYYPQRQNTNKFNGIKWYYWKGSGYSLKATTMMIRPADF

recombinant biotinylated hAngiopoietin-2 protein (R&D, Cat. No.: BT623B/CF) (human), sequence (O15123 19-496 limits assumed): as above
Cynomolgus monkey Ang2 C-terminal domain (Lys274-Phe495) (cynomolgus monkey), sequence (chain, as listed by the source, form in doubt): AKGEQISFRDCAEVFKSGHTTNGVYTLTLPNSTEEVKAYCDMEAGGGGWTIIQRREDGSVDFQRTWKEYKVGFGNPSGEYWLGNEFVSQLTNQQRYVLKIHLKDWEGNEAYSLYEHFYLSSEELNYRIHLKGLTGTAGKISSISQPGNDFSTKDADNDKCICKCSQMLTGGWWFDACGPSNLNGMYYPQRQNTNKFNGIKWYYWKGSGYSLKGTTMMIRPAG

Substance | Kd [1] [nM] | EC50 [2] [nM] | IC50 [3] [nM] | IC50 [4] [nM] | EC50 [5] [nM]
Nesvacumab (Regeneron) (antibody) | 1.04 | – | – | – | –
IgG (antibody) | – | 0.00807 | 24.8 | 16.9 | 16.8
